Six sequences from the supplement of paper PMC11316812 can be followed below.

Data set [1] has as its system MCF7. Description: percentage of EdU-negative (G0-arrested) nuclei per well, 72 h; higher = more G0 arrest. The note with it: reference: sequence is the full UniProt precursor, the tested protein was the secreted form or ectodomain.
For data set [2], the system named is hTERT-HMEC. The description is as above. The note with it: reference: sequence is the full UniProt precursor, the tested protein was the secreted form or ectodomain.
Where [3] appears, read: protein concentration 0.0270475 µM.
[4] abbreviates: protein concentration 0.270475 µM.
[5] abbreviates: protein concentration 0.0225 µM.

± gives the standard deviation of the averaged measurements.
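Also: secreted proteins added to cultured cells, EdU pulse at the end, nuclei found by Hoechst imaging, EdU status from nuclear versus surrounding ring intensity ratio, PBS as neutral control.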

For the sequence “MAQTSSYFMLISCLMFLSQSQGQEAQTELPQARISCPEGTNAYRSYCYYFNEDRETWVDADLYCQNMNSGNLVSVLTQAEGAFVASLIKESGTDDFNVWIGLHDPKKNRRWHWSSGSLVSYKSWGIGAPSSVNPGYCVSLTSSTGFQKWKDVPCEDKFSFVCKFKN”, the “percentage of EdU-negative” value in data set [1] (setting [3]) turned out to be 25 ± 1.8%; in data set [1] (setting [4]) it was 23.9 ± 0.49%; in data set [2] (setting [3]) it was 6.23 ± 0.99%; in data set [2] (setting [4]), 6.73 ± 0.84%.

“MAQYLSTLLLLLATLAVALAWSPKEEDRIIPGGIYNADLNDEWVQRALHFAISEYNKATKDDYYRRPLRVLRARQQTVGGVNYFFDVEVGRTICTKSQPNLDTCAFHEQPELQKKQLCSFEIYEVPWENRRSLVKSRCQES”: the “percentage of EdU-negative” value came out at 25.5 ± 1.2% in data set [1] (setting [5]), 25 ± 0.45% in data set [1] (protein concentration 0.225 µM), 5.26 ± 0.4% in data set [2] (setting [5]) and 5.09 ± 0.29% in data set [2] (protein concentration 0.225 µM).

In the case of “MARAAALLPSRSPPTPLLWPLLLLLLLETGAQDVRVQVLPEVRGQLGGTVELPCHLLPPVPGLYISLVTWQRPDAPANHQNVAAFHPKMGPSFPSPKPGSERLSFVSAKQSTGQDTEAELQDATLALHGLTVEDEGNYTCEFATFPKGSVRGMTWLRVIAKPKNQAEAQKVTFSQDPTTVALCISKEGRPPARISWLSSLDWEAKETQVSGTLAGTVTVTSRFTLVPSGRADGVTVTCKVEHESFEEPALIPVTLSVRYPPEVSISGYDDNWYLGRTDATLSCDVRSNPEPTGYDWSTTSGTFPTSAVAQGSQLVIHAVDSLFNTTFVCTVTNAVGMGRAEQVIFVRETPNTAGAGATGGIIGGIIAAIIATAVAATGILICRQQRKEQTLQGAEEDEDLEGPPSYKPPTPKAKLEAQEMPSQLFTLGASEHSPLKTPYFDAGASCTEQEMPRYHELPTLEERSGPLHPGATSLGSPIPVPPGPPAVEDVSLDLEDEEGEEEEEYLDKINPIYDALSYSSPSDSYQGKGFVMSRAMYV”, the “percentage of EdU-negative” value worked out at 21.9 ± 1.3% in data set [1] (setting [5]), 22.8 ± 0.43% in data set [1] (protein concentration 0.225 µM), 4.75 ± 0.29% in data set [2] (setting [5]) and 5.33 ± 0.83% in data set [2] (protein concentration 0.225 µM).

Take “MARAGPAWLLLAIWVVLPSWLSSAKVSSLIERISDPKDLKKLLRTRNNVLVLYSKSEVAAENHLRLLSTVAQAVKGQGTICWVDCGDAESRKLCKKMKVDLSPKDKKVELFHYQDGAFHTEYNRAVTFKSIVAFLKDPKGPPLWEEDPGAKDVVHLDSEKDFRRLLKKEEKPLLIMFYAPWCSMCKRMMPHFQKAATQLRGHAVLAGMNVYSSEFENIKEEYSVRGFPTICYFEKGRFLFQYDNYGSTAEDIVEWLKNPQPPQPQVPETPWADEGGSVYHLTDEDFDQFVKEHSSVLVMFHAPWCGHCKKMKPEFEKAAEALHGEADSSGVLAAVDATVNKALAERFHISEFPTLKYFKNGEKYAVPVLRTKKKFLEWMQNPEAPPPPEPTWEEQQTSVLHLVGDNFRETLKKKKHTLVMFYAPWCPHCKKVIPHFTATADAFKDDRKIACAAVDCVKDKNQDLCQQEAVKGYPTFHYYHYGKFAEKYDSDRTELGFTNYIRALREGDHERLGKKKEEL”: the “percentage of EdU-negative” value was 22.8 ± 0.61% in data set [1] (protein concentration 0.019 µM), 22.5 ± 0.95% in data set [1] (protein concentration 0.19 µM), 4.5 ± 0.56% in data set [2] (protein concentration 0.019 µM) and 6.73 ± 0.2% in data set [2] (protein concentration 0.19 µM).

In the case of “MARAHWGCCPWLVLLCACAWGHTKPVDLGGQDVRNCSTNPPYLPVTVVNTTMSLTALRQQMQTQNLSAYIIPGTDAHMNEYIGQHDERRAWITGFTGSAGTAVVTMKKAAVWTDSRYWTQAERQMDCNWELHKEVGTTPIVTWLLTEIPAGGRVGFDPFLLSIDTWESYDLALQGSNRQLVSITTNLVDLVWGSERPPVPNQPIYALQEAFTGSTWQEKVSGVRSQMQKHQKVPTAVLLSALEETAWLFNLRASDIPYNPFFYSYTLLTDSSIRLFANKSRFSSETLSYLNSSCTGPMCVQIEDYSQVRDSIQAYSLGDVRIWIGTSYTMYGIYEMIPKEKLVTDTYSPVMMTKAVKNSKEQALLKASHVRDAVAVIRYLVWLEKNVPKGTVDEFSGAEIVDKFRGEEQFSSGPSFETISASGLNAALAHYSPTKELNRKLSSDEMYLLDSGGQYWDGTTDITRTVHWGTPSAFQKEAYTRVLIGNIDLSRLIFPAATSGRMVEAFARRALWDAGLNYGHGTGHGIGNFLCVHEWPVGFQSNNIAMAKGMFTSIEPGYYKDGEFGIRLEDVALVVEAKTKYPGSYLTFEVVSFVPYDRNLIDVSLLSPEHLQYLNRYYQTIREKVGPELQRRQLLEEFEWLQQHTEPLAARAPDTASWASVLVVSTLAILGWSV”, the “percentage of EdU-negative” value amounted to 23.2 ± 0.31% in data set [1] (setting [5]), 26.8 ± 0.78% in data set [1] (protein concentration 0.225 µM), 5.4 ± 1.8% in data set [2] (setting [5]) and 6.21 ± 0.83% in data set [2] (protein concentration 0.225 µM).

Regarding “MARAMAAAWPLLLVALLVLSWPPPGTGDVVVQAPTQVPGFLGDSVTLPCYLQVPNMEVTHVSQLTWARHGESGSMAVFHQTQGPSYSESKRLEFVAARLGAELRNASLRMFGLRVEDEGNYTCLFVTFPQGSRSVDIWLRVLAKPQNTAEVQKVQLTGEPVPMARCVSTGGRPPAQITWHSDLGGMPNTSQVPGFLSGTVTVTSLWILVPSSQVDGKNVTCKVEHESFEKPQLLTVNLTVYYPPEVSISGYDNNWYLGQNEATLTCDARSNPEPTGYNWSTTMGPLPPFAVAQGAQLLIRPVDKPINTTLICNVTNALGARQAELTVQVKEGPPSEHSGISRNAIIFLVLGILVFLILLGIGIYFYWSKCSREVLWHCHLCPSSTEHASASANGHVSYSAVSRENSSSQDPQTEGTR [A0A0C4DG49]”, the “percentage of EdU-negative” value worked out at 23.8 ± 1.6% in data set [1] (setting [5]), 26.1 ± 2.5% in data set [1] (protein concentration 0.225 µM), 4.71 ± 0.025% in data set [2] (setting [5]) and 10.7 ± 2.4% in data set [2] (protein concentration 0.225 µM).
